US20080058263A1 (published 2008)

T1: VEGFR-3-Fc (UniProt P35916 25-328)
T1 construct: domain: first three Ig domains; conditioned supernatant of 293T cells; also called VEGFR-3-Fc fusion protein; not shown: Fc fragment of the pIg vector
T1 sequence (looked up): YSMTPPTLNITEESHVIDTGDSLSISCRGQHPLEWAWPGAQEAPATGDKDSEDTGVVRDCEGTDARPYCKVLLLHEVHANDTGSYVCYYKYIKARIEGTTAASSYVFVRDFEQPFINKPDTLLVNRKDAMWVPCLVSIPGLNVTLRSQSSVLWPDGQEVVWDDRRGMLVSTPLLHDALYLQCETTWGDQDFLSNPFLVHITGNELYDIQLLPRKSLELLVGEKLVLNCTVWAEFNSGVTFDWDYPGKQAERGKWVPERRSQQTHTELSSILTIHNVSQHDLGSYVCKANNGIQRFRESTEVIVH


Experiments:
Experiment in all cases: receptor-Fc IP
VEGFR-1-Fc = target: T2, VEGFR-1-Fc (UniProt P17948 27-338)
T2 construct: domain: first three Ig domains; expressed in Drosophila S2 cells, purified on Protein A sepharose; also called VEGFR-1-Fc fusion protein; not shown: Fc fragment from the Signal-pIgPlus vector
Summary of the method: (§1)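 fusion protein at 400 ng/ml in an IP mix (PBS, 1.5% BSA, 0.06% Tween 20, 3 μg/ml heparin) was combined with sample supernatant at a 1:2 ratio. Bound ligand captured by immunoprecipitation with pentahistidine antibody.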

VEGFR-2-Fc = target: T3, VEGFR-2-Fc (UniProt P35968 20-322)
T3 construct: domain: first 3 Ig domains; conditioned supernatant of 293T cells; also called VEGFR-2-Fc fusion protein; not shown: Fc fragment of the pIg vector
Summary of the method: as §1

VEGFR-3-Fc = target: T1, VEGFR-3-Fc
Summary of the method: as §1

T2 sequence (P17948 27-338): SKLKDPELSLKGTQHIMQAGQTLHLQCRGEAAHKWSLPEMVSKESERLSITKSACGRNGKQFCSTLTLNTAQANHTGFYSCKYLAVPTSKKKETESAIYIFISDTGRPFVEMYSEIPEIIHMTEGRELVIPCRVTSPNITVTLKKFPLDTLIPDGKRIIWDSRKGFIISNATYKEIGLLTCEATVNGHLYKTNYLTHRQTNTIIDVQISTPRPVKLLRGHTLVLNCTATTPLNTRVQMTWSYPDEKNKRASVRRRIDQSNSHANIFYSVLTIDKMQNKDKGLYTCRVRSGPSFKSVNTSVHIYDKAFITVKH
T3 sequence (P35968 20-322): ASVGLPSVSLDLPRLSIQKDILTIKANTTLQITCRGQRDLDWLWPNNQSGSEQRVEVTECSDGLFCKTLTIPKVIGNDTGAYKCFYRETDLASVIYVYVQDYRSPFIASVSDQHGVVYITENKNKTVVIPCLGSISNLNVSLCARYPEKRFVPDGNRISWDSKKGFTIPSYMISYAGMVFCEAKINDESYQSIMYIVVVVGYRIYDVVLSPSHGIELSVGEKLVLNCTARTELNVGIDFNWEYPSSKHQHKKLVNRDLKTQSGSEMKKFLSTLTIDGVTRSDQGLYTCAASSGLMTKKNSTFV

| Binder | binding result (VEGFR-1-Fc) | binding result (VEGFR-2-Fc) | binding result (VEGFR-3-Fc) |
| --- | --- | --- | --- |
| 72-13 (ligand) GQNHHEVVKSIDNEWRKTQCMPREVCIDVGKEFGVATNTFFKPPCVSVYRCGGCCNDEGLECVPTEESNITMQIMRITVPLSQGPKPVTISFANHTSCRCMSKLD | no binding | no binding | no binding |
| 72-15 (ligand) GQNHHEVVKSIDNEWRKTQCMPREVCIDVGKEFGVATNTFFKPPCVSVYRCGGCCNSEGLQCVPTEESNITMQIMRITVPLSQGPKPVTISFANHTSCRCMSKLD | no binding | no binding | no binding |
| 74-13 (ligand) GQNHHEVVKSIDNEWRKTQCMPREVCIDVGKEFGVATNTFFKPSCVPLMRCGGCCNDEGLECVPTEESNITMQIMRITVPLSQGPKPVTISFANHTSCRCMSKLD | no binding | no binding | no binding |
| 32-14 (ligand, clone entry) GQNHHEVVKSIDNEWRKTQCMPIETLVDIFQEFGVATNTFFKPPCVSVYRCGGCCNDEGLECMNTSTSYLSKTLFEITVPLSQGPKPVTISFANHTSCRCMSKLD | no binding | no binding | binds |
| 32-15 (ligand) GQNHHEVVKSIDNEWRKTQCMPIETLVDIFQEFGVATNTFFKPPCVSVYRCGGCCNSEGLQCVPTEESNITMQIMRITVPLSQGPKPVTISFANHTSCRCMSKLD | no binding | no binding | binds |
| 32-16 (ligand) GQNHHEVVKSIDNEWRKTQCMPIETLVDIFQEFGVATNTFFKPPCVSVYRCGGCCNSEGLQCMNTSTSYLSKTLFEITVPLSQGPKPVTISFANHTSCRCMSKLD | no binding | no binding | binds |
| 52-9 (ligand) AHYNTEILKSIDNEWRKTQCMPIETLVDIFQEFGVATNTFFKPPCVSVYRCGGCCNDEGLECVPTEESNITMQIMRITVPLSQGPKPVTISFLQHNKCECRPKKD | no binding | no binding | binds |
| 52-11 (ligand) AHYNTEILKSIDNEWRKTQCMPIETLVDIFQEFGVATNTFFKPPCVSVYRCGGCCNSEGLQCVPTEESNITMQIMRITVPLSQGPKPVTISFLQHNKCECRPKKD | no binding | no binding | binds |
| 52-15 (ligand, clone entry) AHYNTEILKSIDNEWRKTQCMPIETLVDIFQEFGVATNTFFKPPCVSVYRCGGCCNSEGLQCVPTEESNITMQIMRITVPLSQGPKPVTISFANHTSCRCMSKLD | no binding | no binding | binds |
| 53-1 (ligand) AHYNTEILKSIDNEWRKTQCMPIETLVDIFQEYPDEIEYIFKPPCVSVYRCGGCCNDEGLECVPTEESNITMQIMRIKPHQGQHIGEMSFLQHNKCECRPKKD | no binding | binds | no binding |
| 53-3 (ligand, clone entry) AHYNTEILKSIDNEWRKTQCMPIETLVDIFQEYPDEIEYIFKPPCVSVYRCGGCCNSEGLQCVPTEESNITMQIMRIKPHQGQHIGEMSFLQHNKCECRPKKDLV | binds | binds | binds |
| 53-7 (ligand) AHYNTEILKSIDNEWRKTQCMPIETLVDIFQEYPDEIEYIFKPPCVSVYRCGGCCNSEGLQCVPTEESNITMQIMRIKPHQGQHIGEMSFANHTSCRCMSKLD | no binding | binds | no binding |
| 62-1 (ligand) GQNHHEVVKFMDVYQRSYCHPREVCIDVGKEFGVATNTFFKPPCVSVYRCGGCCNDEGLECVPTEESNITMQIMRIKPHQGQHIGEMSFLQHNKCECRPKKD | binds | no binding | no binding |
| 63-8 (ligand) GQNHHEVVKFMDVYQRSYCHPREVCIDVGKEYPDEIEYIFKPPCVSVYRCGGCCNSEGLQCMNTSTSYLSKTLFEIKPHQGQHIGEMSFANHTSCRCMSKLD | no binding | no binding | no binding |
| 13-6 (ligand) GQNHHEVVKFMDVYQRSYCHPIETLVDIFQEYPDEIEYIFKPPCVSVYRCGGCCNDEGLECMNTSTSYLSKTLFEIKPHQGQHIGEMSFANHTSCRCMSKLD | no binding | no binding | no binding |
| 13-8 (ligand) GQNHHEVVKFMDVYQRSYCHPIETLVDIFQEYPDEIEYIFKPPCVSVYRCGGCCNSEGLQCMNTSTSYLSKTLFEIKPHQGQHIGEMSFANHTSCRCMSKLD | no binding | no binding | no binding |
| 43-6 (ligand) AHYNTEILKFMDVYQRSYCHPREVCIDVGKEYPDEIEYIFKPPCVSVYRCGGCCNDEGLECMNTSTSYLSKTLFEIKPHQGQHIGEMSFANHTSCRCMSKLD | no binding | no binding | no binding |
| 43-8 (ligand) AHYNTEILKFMDVYQRSYCHPREVCIDVGKEYPDEIEYIFKPPCVSVYRCGGCCNSEGLQCMNTSTSYLSKTLFEIKPHQGQHIGEMSFANHTSCRCMSKLD | no binding | no binding | no binding |
| 61-4 (ligand) GQNHHEVVKFMDVYQRSYCHPREVCIDVGKEYPDEIEYIFKPSCVPLMRCGGCCNSEGLQCMNTSTSYLSKTLFEIKPHQGQHIGEMSFLQHNKCECRPKKD | no binding | no binding | no binding |
| 61-6 (ligand) GQNHHEVVKFMDVYQRSYCHPREVCIDVGKEYPDEIEYIFKPSCVPLMRCGGCCNDEGLECMNTSTSYLSKTLFEIKPHQGQHIGEMSFANHTSCRCMSKLD | no binding | no binding | no binding |
| 61-8 (ligand) GQNHHEVVKFMDVYQRSYCHPREVCIDVGKEYPDEIEYIFKPSCVPLMRCGGCCNSEGLQCMNTSTSYLSKTLFEIKPHQGQHIGEMSFANHTSCRCMSKLD | no binding | no binding | no binding |
| 62-6 (ligand) GQNHHEVVKFMDVYQRSYCHPREVCIDVGKEFGVATNTFFKPPCVSVYRCGGCCNDEGLECMNTSTSYLSKTLFEIKPHQGQHIGEMSFANHTSCRCMSKLD | no binding | no binding | no binding |
| 62-8 (ligand) GQNHHEVVKFMDVYQRSYCHPREVCIDVGKEFGVATNTFFKPPCVSVYRCGGCCNSEGLQCMNTSTSYLSKTLFEIKPHQGQHIGEMSFANHTSCRCMSKLD | no binding | binds | no binding |
| 63-6 (ligand) GQNHHEVVKFMDVYQRSYCHPREVCIDVGKEYPDEIEYIFKPPCVSVYRCGGCCNDEGLECMNTSTSYLSKTLFEIKPHQGQHIGEMSFANHTSCRCMSKLD | no binding | binds | no binding |
| 64-8 (ligand) GQNHHEVVKFMDVYQRSYCHPREVCIDVGKEFGVATNTFFKPSCVPLMRCGGCCNSEGLQCMNTSTSYLSKTLFEIKPHQGQHIGEMSFANHTSCRCMSKLD | no binding | no binding | no binding |
